How the values were obtained:
[1] = molecular target: T1, PacCZF-MBP (Alternaria alternata (tangerine …, UniProt A0A177DU84 1-150)); assay: EMSA; […]; 28°C for 20 min; […]; buffer, […]; conditions: protein: recombinant; tags: MBP (pMAL-c5x); label: 3'-biotin; blunt
[2] = molecular target: T1, PacCZF-MBP; assay: competition; excess unlabeled mutant vs labeled WT ACTT6 probe; […]; 28°C for 20 min; […]; buffer, […]; conditions: protein: recombinant; tags: MBP (pMAL-c5x); label: unlabeled; blunt

Binder	binding result [1]	binding result [2]
ACTTR promoter WT probe (dsDNA) DNA 1: ACGAACCACATCCTCGCCAAGGACATGAATGACACA DNA 2: TGTGTCATTCATGTCCTTGGCGAGGATGTGGTTCGT	binds	
ACTT6 promoter WT probe (dsDNA) DNA 1: CGTGACTGACATCCCGCCAAGGCTAACCATCCGGGA DNA 2: TCCCGGATGGTTAGCCTTGGCGGGATGTCAGTCACG	binds	
ACTT6 promoter mutant competitor (dsDNA) DNA 1: CGTGACTGACATCCCGAACCGGCTAACCATCCGGGA DNA 2: TCCCGGATGGTTAGCCGGTTCGGGATGTCAGTCACG		no binding

Source: paper PMC10715145
